Assay results taken from EP4782541A1 (Nanjing Probio Biotech Co., Ltd., dated 2026).

Columns and labels:
[1] = biological target: T1, human ROR1 (on CHO-K1/ROR1 cells and ROR1 tumour cell lines) (human, UniProt Q01973 30-937); assay: cell-based or functional assay
[2] = biological target: T2, human CD3 (on Jurkat cells) (human, UniProt P07766 23-207; P09693 23-182; P04234 22-171); assay: flow cytometry on Jurkat cells expressing human CD3
T2 construct: whole, on cells

[3] = biological target: T1, human ROR1 (on CHO-K1/ROR1 cells and …); assay: flow cytometry on A375 cells (human ROR1 tumour cell line)
[4] = biological target: T1, human ROR1 (on CHO-K1/ROR1 cells and …); assay: flow cytometry on A549 cells (human ROR1 tumour cell line)
[5] = biological target: T1, human ROR1 (on CHO-K1/ROR1 cells and …); assay: flow cytometry on PA-1 cells (human ROR1 tumour cell line)
[6] = biological target: T1, human ROR1 (on CHO-K1/ROR1 cells and …); assay: flow cytometry on PSN-1 cells (human ROR1 tumour cell line)
[7] = biological target: T1, human ROR1 (on CHO-K1/ROR1 cells and …); assay: flow cytometry on Jeko-1 cells (human ROR1 tumour cell line)
[8] = biological target: T1, human ROR1 (on CHO-K1/ROR1 cells and …); assay: flow cytometry on CHO-K1/ROR1 cells overexpressing human ROR1
[9] = biological target: T1, human ROR1 (on CHO-K1/ROR1 cells and …); assay: flow cytometry on MDA-MB-231 cells (human ROR1 tumour cell line)
[10] = biological target: T3, human ROR1 protein (human, UniProt Q01973 30-403, limits assumed); assay: SPR (Biacore 8K); human ROR1 amine-coupled at 0.05 ug/mL as ligand, antibody as analyte
T3 construct: Recombinant antigen of the SPR assay; also called ROR1 (SPR ligand)
T3 sequence (Q01973 30-403 limits assumed): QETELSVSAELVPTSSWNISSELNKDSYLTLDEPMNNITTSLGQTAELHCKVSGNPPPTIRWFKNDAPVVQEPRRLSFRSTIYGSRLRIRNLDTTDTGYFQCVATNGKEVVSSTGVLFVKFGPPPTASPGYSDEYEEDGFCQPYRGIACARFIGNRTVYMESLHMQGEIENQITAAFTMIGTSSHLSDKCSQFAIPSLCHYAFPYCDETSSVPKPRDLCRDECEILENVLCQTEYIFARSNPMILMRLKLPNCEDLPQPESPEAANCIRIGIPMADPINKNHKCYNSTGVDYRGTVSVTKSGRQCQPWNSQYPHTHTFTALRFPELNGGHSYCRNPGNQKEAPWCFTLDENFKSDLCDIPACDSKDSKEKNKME

[11] = biological target: T3, human ROR1 protein; assay: SPR (Biacore 8K); human ROR1 amine-coupled at 0.10 ug/mL as ligand, antibody as analyte
[12] = biological target: T3, human ROR1 protein; assay: SPR (Biacore 8K); human ROR1 amine-coupled at 0.50 ug/mL as ligand, antibody as analyte
[13] = biological target: T3, human ROR1 protein; assay: SPR (Biacore 8K); human ROR1 amine-coupled at 2.50 ug/mL as ligand, antibody as analyte
[14] = biological target: T3, human ROR1 protein; assay: SPR (Biacore 8K); human ROR1 amine-coupled at 12.50 ug/mL as ligand, antibody as analyte
[15] = biological target: T3, human ROR1 protein; assay: SPR (Biacore 8K); human ROR1 amine-coupled at 62.50 ug/mL as ligand, antibody as analyte

T1 sequence (Q01973 30-937): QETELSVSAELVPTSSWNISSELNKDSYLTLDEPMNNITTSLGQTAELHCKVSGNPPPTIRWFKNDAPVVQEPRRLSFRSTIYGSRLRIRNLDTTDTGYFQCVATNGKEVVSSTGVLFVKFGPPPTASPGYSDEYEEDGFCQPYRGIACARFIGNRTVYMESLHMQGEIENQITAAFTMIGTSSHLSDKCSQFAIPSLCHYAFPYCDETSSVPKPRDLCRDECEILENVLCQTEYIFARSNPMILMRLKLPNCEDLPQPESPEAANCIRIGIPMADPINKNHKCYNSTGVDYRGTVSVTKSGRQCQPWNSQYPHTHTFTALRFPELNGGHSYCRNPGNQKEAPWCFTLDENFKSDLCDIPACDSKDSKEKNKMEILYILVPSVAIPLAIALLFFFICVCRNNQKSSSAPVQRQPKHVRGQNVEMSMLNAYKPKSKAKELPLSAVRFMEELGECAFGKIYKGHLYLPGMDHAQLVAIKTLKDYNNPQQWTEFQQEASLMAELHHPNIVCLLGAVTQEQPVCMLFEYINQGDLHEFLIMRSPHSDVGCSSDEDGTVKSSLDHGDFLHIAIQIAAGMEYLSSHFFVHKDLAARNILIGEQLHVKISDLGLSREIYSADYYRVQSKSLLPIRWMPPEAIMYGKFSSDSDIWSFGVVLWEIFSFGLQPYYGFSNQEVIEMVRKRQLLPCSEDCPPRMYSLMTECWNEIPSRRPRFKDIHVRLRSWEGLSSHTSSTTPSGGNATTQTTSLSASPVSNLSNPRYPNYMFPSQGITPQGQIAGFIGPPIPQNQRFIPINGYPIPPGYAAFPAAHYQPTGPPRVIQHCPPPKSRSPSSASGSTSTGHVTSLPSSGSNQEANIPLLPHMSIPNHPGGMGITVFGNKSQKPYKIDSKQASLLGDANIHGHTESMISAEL
T2 sequence (P07766 23-207, chain 1 of 3): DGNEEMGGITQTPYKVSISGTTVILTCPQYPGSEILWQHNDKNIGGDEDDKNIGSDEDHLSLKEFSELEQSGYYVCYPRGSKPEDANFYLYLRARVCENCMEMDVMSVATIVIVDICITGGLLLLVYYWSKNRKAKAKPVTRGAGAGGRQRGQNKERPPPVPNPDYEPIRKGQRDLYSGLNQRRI
T2 sequence (P09693 23-182, chain 2 of 3): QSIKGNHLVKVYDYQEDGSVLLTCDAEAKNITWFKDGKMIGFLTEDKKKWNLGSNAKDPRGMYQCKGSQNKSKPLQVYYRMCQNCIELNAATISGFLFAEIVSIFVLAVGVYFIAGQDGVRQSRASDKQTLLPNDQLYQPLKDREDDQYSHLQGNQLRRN
T2 sequence (P04234 22-171, chain 3 of 3): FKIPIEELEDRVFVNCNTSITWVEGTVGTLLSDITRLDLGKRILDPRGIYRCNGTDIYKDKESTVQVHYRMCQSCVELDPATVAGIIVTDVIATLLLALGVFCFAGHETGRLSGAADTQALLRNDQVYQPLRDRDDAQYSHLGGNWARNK

B1: BsAb-12 (bispecific antibody, human IgG1, lambda)
chain: EVQLVESGGGLVQPGGSLRLSCAASGRSFSSFQMGWFRQAPGKEREFVAASGWSGGPTYYWDSVIGRFTISTDNSKNTLYLQMNSLRAEDTAVYYCYEDRVLSGRPVRYWGQGTLVTVSSDKTHTCPPCPAPESTRGPSVFLFPPKPKDTLMISRTPEVTCVVVDVSHEDPEVKFNWYVDGVEVHNAKTKPREEQYNSTYRVVSVLTVLHQDWLNGKEYKCKVSNKALPAPIEKTISKAKGQPREPQVCTLPPSRDELTKNQVSLSCAVKGFYPSDIAVEWESNGQPENNYKTTPPVLDSDGSFFLVSKLTVDKSRWQQGNVFSCSVMHEALHNHYTQKSLSLSPGK
heavy: EVQLVESGGGLVQPGGSLRLSCAASGRSFSSFQMGWFRQAPGKEREFVAASGWSGGPTYYWDSVIGRFTISTDNSKNTLYLQMNSLRAEDTAVYYCYEDRVLSGRPVRYWGQGTLVTVSSGGGGSGGGGSGGGGSEVQLVESGGGLVQPGRSLRLSCAASGFTFNTYAMNWVRQAPGKGLEWVARIRSKYNNYATYYADSVKDRFTISRDDSKSIAYLQMNSLKTEDTAVYYCVRHGNFGNSYVSWFAYWGQGTLVTVSSASTKGPSVFPLAPSSKSTSGGTAALGCLVKDYFPEPVTVSWNSGALTSGVHTFPAVLQSSGLYSLSSVVTVPSSSLGTQTYICNVNHKPSNTKVDKKVEPKSCDKTHTCPPCPAPESTRGPSVFLFPPKPKDTLMISRTPEVTCVVVDVSHEDPEVKFNWYVDGVEVHNAKTKPREEQYNSTYRVVSVLTVLHQDWLNGKEYKCKVSNKALPAPIEKTISKAKGQPREPQVYTLPPCRDELTKNQVSLWCLVKGFYPSDIAVEWESNGQPENNYKTTPPVLDSDGSFFLYSKLTVDKSRWQQGNVFSCSVMHEALHNHYTQKSLSLSPGK
light: QTVVTQEPSLTVSPGGTVTLTCRSSTGAVTTSNYANWVQQKPGQAPRGLIGGTNKRAPGVPARFSGSLLGGKAALTLSGVQPEDEAEYFCALWYSNLWVFGGGTKLTVLGQPKAAPSVTLFPPSSEELQANKATLVCLISDFYPGAVTVAWKADSSPVKAGVETTTPSKQSNNKYAASSYLSLTPEQWKSHRSYSCQVTHEGSTVEKTVAPTECS
notes: also called BsAb-12 CD3×ROR1
B1 was tested, and the “EC50 of T cell activation based on reporter gene (luciferase), target cells A375” value [1] was 0.0117 nM, the “EC50 of T cell activation based on reporter gene (luciferase), target cells Jeko-1” value [1] was 0.00748 nM and the “EC50 of T cell activation based on reporter gene (luciferase), target cells MDA-MB-231” value [1] was 0.00258 nM. It also gave an EC50 [2] of 1.39 nM, an EC50 [3] of 0.155 nM and an EC50 [4] of 0.415 nM. It also gave an EC50 [5] of 0.547 nM, an EC50 [6] of 1.17 nM and an EC50 [7] of 0.133 nM. For the same binder, the EC50 [8] was 0.223 nM, the EC50 [9] was 0.308 nM and the Kd [10] was 0.649 nM. It also gave a koff [10] of 0.000421 s⁻¹, a kon [10] of 649000 M⁻¹ s⁻¹ and a Kd [11] of 0.359 nM. The koff [11] was 0.000169 s⁻¹, the kon [11] was 471000 M⁻¹ s⁻¹ and the Kd [12] was 0.354 nM. For the same binder, the koff [12] was 0.000207 s⁻¹, the kon [12] was 585000 M⁻¹ s⁻¹ and the Kd [13] was 0.106 nM. It also gave a koff [13] of 8.37e-05 s⁻¹, a kon [13] of 788000 M⁻¹ s⁻¹ and a Kd [14] of 0.0349 nM. The koff [14] was 5.83e-05 s⁻¹, the kon [14] was 1.67e+06 M⁻¹ s⁻¹ and the Kd [15] was 0.0267 nM. It also gave a koff [15] of 2.83e-05 s⁻¹ and a kon [15] of 1.06e+06 M⁻¹ s⁻¹.
